Data: patent US20190062752, “Transcription Factor Trapping by RNA in Gene Regulatory Elements” (Whitehead Institute for Biomedical Research, published 2019)

Legend:
OCT4 [1] = target: T1, OCT4 (Homo sapiens, UniProt Q01860 Q01860:1-360); test: EMSA; 250 nM OCT4; conditions: tags: Abcam ab134876; label: 32P
Procedure: (§1) The x-axis indicates distance from the TSS in kilobases. The y-axis indicates average density of uniquely mapped reads per genomic bin. […] A radioactively labeled 40-bp DNA probe containing OCT4 consensus binding motif derived from the enhancer of Lefty1 gene was incubated with 250 nM of the recombinant human OCT4 (Abcam, # ab134876). In competition EMSA, 100-fold molar excess of cold competitor DNA containing the OCT4 motif (Lefty1 DNA comp), cold DNA competitor, in which bases adjacent the OCT4 motif were randomly substituted (mut Lefty1 DNA comp), cold DNA competitor lacking the OCT4 motif (Arid1a DNA comp), or cold RNA competitor (Arid1a RNA comp) was pre-incubated with the recombinant OCT4 before the radioactively labeled DNA probe was added to the binding reaction. The arrows indicate free probe and probe bound by OCT4.

YY1 (full length) [2] = target: T2, YY1 (full length) (Mus musculus, UniProt Q00899 Q00899:1-414); test: EMSA; 240 nM YY1 in FIG. 9C; conditions: tags: N-terminal His6; label: 32P
T2 sequence (Q00899 whole entry, the tested form may be a part, one chain of several): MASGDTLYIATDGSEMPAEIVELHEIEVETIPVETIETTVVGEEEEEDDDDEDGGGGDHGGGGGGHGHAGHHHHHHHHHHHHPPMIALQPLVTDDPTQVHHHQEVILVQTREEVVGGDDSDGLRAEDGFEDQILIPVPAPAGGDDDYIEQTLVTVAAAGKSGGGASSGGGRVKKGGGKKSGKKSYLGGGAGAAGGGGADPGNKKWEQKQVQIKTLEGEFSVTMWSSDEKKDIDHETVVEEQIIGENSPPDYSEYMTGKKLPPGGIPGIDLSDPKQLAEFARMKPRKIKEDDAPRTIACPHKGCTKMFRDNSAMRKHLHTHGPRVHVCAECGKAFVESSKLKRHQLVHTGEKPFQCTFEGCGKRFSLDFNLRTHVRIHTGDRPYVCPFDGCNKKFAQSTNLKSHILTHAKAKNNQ
Procedure: A radioactively labeled 30-bp DNA probe containing YY1 consensus binding motif derived from the promoter region of Arid1a gene was incubated with 80 nM of the recombinant murine YY1. For supershift assay, 0.5 μl of YY1 antibodies (# sc-7341) was added to the DNA probe pre-incubated with the recombinant protein. In competition EMSA, 100-fold molar excess of cold competitor DNA containing YY1 motif (Spec comp) or lacking YY1 motif (Nspec comp) was pre-incubated with the recombinant YY1 before the radioactively labeled DNA probe was added to the binding reaction. The arrows indicate free probe, probe bound by YY1, probe bound by YY1 fragment, and supershifted probe. […] Radioactively labeled 30-bp DNA probe containing YY1 consensus binding motif derived from the promoter region of Rpl30 gene was incubated with 240 nM of the recombinant murine YY1. In competition EMSA, 100-fold molar excess of cold competitor RNA derived from the promoter region of Arid1a gene was pre-incubated with the recombinant murine YY1 before the radioactively labeled DNA probe was added to the binding reaction. The arrows indicate free probe and probe bound by YY1;
EMSAs with the recombinant murine YY1 were performed in a similar way as those with the NE. […]

YY1 (full length) [3] = target: T2, YY1 (full length); test: EMSA; tethered RNA outcompetes DNA with untethered RNA; IC50 values only in figure; conditions: tags: N-terminal His6; label: 32P (probe 2); 30-bp DNA duplex with 30-nt RNA overhang at each 3' end
YY1 (full length) [4] = target: T2, YY1 (full length); test: EMSA; weaker than DNA; 0.1 mM ZnCl2, 5 mM MgCl2; conditions: tags: N-terminal His6; label: 32P
Procedure: (§2) 5 nM of radioactively labeled 30-bp DNA probe derived from the promoter region of Arid1a gene containing a consensus YY1 binding motif ([…]; SEQ ID NO: 4) was incubated with increasing concentrations of recombinant murine YY1 protein. Right panel: EMSA of YY1-RNA complexes at different concentrations of recombinant YY1. 5 nM of radioactively labeled 30-nt RNA probe derived from the same region of the Arid1a gene was incubated with increasing concentrations of recombinant YY1 protein.
(§3) EMSAs with the recombinant murine YY1 were performed in a similar way as those with the NE. DNA-binding reactions (20 μl) contained 10 mM HEPES-KOH pH 7.5, 12 mM Tris-HCl pH 7.4, 50 mM NaCl, 50 mM KCl, 5 mM MgCl₂, 0.1 mM ZnCl₂, 0.01% NP-40, 5% glycerol, 500 ng poly(dI-dC), 0.5 mM DTT, and recombinant murine YY1. RNA-binding reactions (20 μl) contained 10 mM HEPES-KOH pH 7.5, 12 mM Tris-HCl pH 7.4, 50 mM NaCl, 50 mM KCl, 5 mM MgCl₂, 0.1 mM ZnCl₂, 0.01% NP-40, 5% glycerol, 10 U SUPERase In RNase inhibitor (Life Technologies), 0.5 mM DTT, and recombinant murine YY1.

YY1 N-terminal region = YY1 N-terminal region (Mus musculus, UniProt Q00899 Q00899:1-277); test: EMSA; N-terminal region binds RNA; conditions: label: 32P
YY1 N-terminal region, sequence (Q00899 1-277, one chain of several): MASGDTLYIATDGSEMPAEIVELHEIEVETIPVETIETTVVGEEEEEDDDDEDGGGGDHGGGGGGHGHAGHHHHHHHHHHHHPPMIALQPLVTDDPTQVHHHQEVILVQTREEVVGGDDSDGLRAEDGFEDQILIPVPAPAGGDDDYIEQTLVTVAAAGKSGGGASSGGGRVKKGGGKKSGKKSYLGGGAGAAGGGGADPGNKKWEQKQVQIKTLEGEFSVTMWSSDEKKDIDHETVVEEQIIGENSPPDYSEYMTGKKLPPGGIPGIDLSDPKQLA
Procedure: (§4) Sizes of N-terminal and C-terminal regions of YY1 are drawn to scale. […] 5 nM of radioactively labeled 30-bp DNA probe derived from the promoter region of Arid1a gene containing a consensus YY1 binding motif was incubated with increasing concentrations of full-length recombinant murine YY1 protein (FL), the N-terminal portion of YY1 (N-term) lacking the zinc-fingers or the C-terminal portion (C-term) containing the zinc fingers. […] The arrows indicate free probe and probe bound by YY1. […] 5 nM of radioactively labeled 30-nt RNA probe derived from the promoter region of Arid1a gene was incubated with increasing concentrations of full-length recombinant murine YY1 protein (FL), the N-terminal portion of YY1 (N-term) lacking the zinc-fingers or the C-terminal portion (C-term) containing the zinc fingers. […] The arrows indicate free probe and probe bound by YY1;
(§5) EMSAs with the recombinant murine YY1 were performed in a similar way as those with the NE. DNA-binding reactions (20 μl) contained 10 mM HEPES-KOH pH 7.5, 12 mM Tris-HCl pH 7.4, 50 mM NaCl, 50 mM KCl, 5 mM MgCl₂, 0.1 mM ZnCl₂, 0.01% NP-40, 5% glycerol, 500 ng poly(dI-dC), 0.5 mM DTT, and recombinant murine YY1. […]

[5] = target: T3, YY1 C-terminal region (zinc fingers) (Mus musculus, UniProt Q00899 Q00899:271-414); test: EMSA; zinc-finger region does not bind RNA; conditions: label: 32P
T3 sequence (Q00899 271-414, one chain of several): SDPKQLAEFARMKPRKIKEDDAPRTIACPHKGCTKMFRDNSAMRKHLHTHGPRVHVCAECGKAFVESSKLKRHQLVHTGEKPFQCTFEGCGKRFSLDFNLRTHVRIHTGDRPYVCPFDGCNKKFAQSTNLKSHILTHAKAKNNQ
Procedure: as §4, §5

OCT4 [6] = target: T1, OCT4; test: EMSA; legend: OCT4 does not bind RNA in vitro; conditions: tags: Abcam ab134876; label: 32P
Procedure: as §1

YY1 (full length) [7] = target: T2, YY1 (full length); test: competition; described as RNA incompatible with YY1 binding in vitro; conditions: tags: N-terminal His6
Procedure: A radioactively labeled 30-nt RNA probe containing sequence derived from the promoter region of Arid1a gene shown in blue above the image or the complementary sequence shown in pink was incubated with 400 nM of the recombinant murine YY1. The arrows indicate free probe and probe bound by YY1. […] Radioactively labeled 30-nt RNA probe derived from the promoter region of Arid1a gene was incubated with 400 nM of recombinant murine YY1. Sequence of the probe is shown above the image in blue. In competition EMSA, 100-fold molar excess of cold competitor RNA with the same sequence as the radiolabeled RNA (Arid1a RNA A), complementary sequence (Arid1a RNA 1), or a different sequence (Arid1a RNA B) was pre-incubated with the recombinant YY1 before the probe was added to the binding reaction. The arrows indicate free probe and probe bound by YY1. Asterisk indicates the position of double-stranded RNA formed when single-stranded cold RNA was incubated with the complementary labelled RNA probe. […] Radioactively labeled 30-nt RNA probe derived from the promoter region of Arid1a gene was incubated with 400 nM of recombinant murine YY1. Sequence of the probe and competitor RNA are shown above the image. For supershift assay, 0.5 μl of YY1 antibodies (# sc-7341) was added to the RNA probe. […]

YY1 (full length) [8] = target: T2, YY1 (full length); test: EMSA; higher affinity than for RNA; 0.1 mM ZnCl2, 5 mM MgCl2; binding curve only in FIG. 7B; conditions: tags: N-terminal His6; label: 32P
Procedure: as §2, §3

[9] = target: T3, YY1 C-terminal region (zinc fingers); test: EMSA; zinc-finger region binds DNA; conditions: label: 32P
Procedure: as §4, §5

T1 sequence (Q01860 whole entry, one chain of several): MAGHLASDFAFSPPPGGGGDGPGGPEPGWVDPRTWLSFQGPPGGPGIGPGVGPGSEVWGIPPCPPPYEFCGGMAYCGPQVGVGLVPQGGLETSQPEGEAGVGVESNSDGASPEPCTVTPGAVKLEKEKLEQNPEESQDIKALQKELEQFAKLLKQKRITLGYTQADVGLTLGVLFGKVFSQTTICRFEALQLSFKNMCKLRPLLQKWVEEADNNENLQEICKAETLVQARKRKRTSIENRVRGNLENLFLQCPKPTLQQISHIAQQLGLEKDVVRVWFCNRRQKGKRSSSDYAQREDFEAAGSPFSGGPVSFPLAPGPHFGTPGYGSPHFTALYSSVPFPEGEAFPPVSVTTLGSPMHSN

B1: Lefty1 enhancer DNA (dsDNA)
DNA 1: GGTGGGAGGGAGACTGCCCTTTGTCATGTAGAAGGAGCTT
DNA 2: AAGCTCCTTCTACATGACAAAGGGCAGTCTCCCTCCCACC
Does B1 bind (OCT4 [1])?
Result: binds

B2: Rpl30 promoter DNA with YY1 motif (dsDNA)
DNA 1: TCGCTCCCCGGCCATCTTGGCGGCTGGTGT
DNA 2: ACACCAGCCGCCAAGATGGCCGGGGAGCGA
Does B2 bind (YY1 (full length) [2])?
Result: binds

B3: Rpl30 DNA with tethered Arid1a RNA (mixed)
mixed 1: TCGCTCCCCGGCCATCTTGGCGGCTGGTGTCUCUUCUCUCUUAAAAUGGCUGCCUGUCUG
mixed 2: ACACCAGCCGCCAAGATGGCCGGGGAGCGACUCUUCUCUCUUAAAAUGGCUGCCUGUCUG
Does B3 bind (YY1 (full length) [3])?
Result: binds

B4: Arid1a promoter RNA A (ssRNA)
RNA: CUCUUCUCUCUUAAAAUGGCUGCCUGUCUG
Does B4 bind (YY1 (full length) [4])?
Result: binds

Does B4 bind (YY1 N-terminal region)?
Result: binds

Does B4 bind [5]?
Result: no binding

Does B4 bind (OCT4 [6])?
Result: no binding

B5: Arid1a promoter RNA B (ssRNA)
RNA: CCCGCCUCCCCAGGCCUACGCGCUGAGCUC
Does B5 bind (YY1 (full length) [7])?
Result: no binding

B6: Arid1a promoter DNA with YY1 motif (dsDNA)
DNA 1: CTCTTCTCTCTTAAAATGGCTGCCTGTCTG
DNA 2: CAGACAGGCAGCCATTTTAAGAGAGAAGAG
Does B6 bind (YY1 (full length) [8])?
Result: binds

Does B6 bind [9]?
Result: binds
